The results in this text go back to US20090196877A1.

The assay addresses SIINFEKL/H-2 Kb (mouse) (UniProt P01901).

Substance “OT-1 T cell Receptor (TCR) of OT-1 TCR transgenic T cells” came in with an expression of the cell surface markers CD44, CD69 and CD25 on OT-1 cells after stimulation with irradiated CD80/EG7 of 100%.
